Consider 1 substance from article PMC10583499.

The target of the experiment is human NRP2 (v2, NM_003872.3), untagged, stably overexpressed on Expi293F cells (Expi293F-hNRP2) (human) (UniProt O60462). As to the kind of experiment: flow cytometry on cells. A general note: Flow cytometry measures light scatter and fluorescence of single cells or particles in a stream.

pEC50: −log10 of the molar value.

In general, pEC50 refers to −log10 of the EC50, conventionally taken in molar units. “human Sema3F (amino acids 19 to 779), N-terminal 6xHis-Myc tag, R583A R586A (from UniProt Q13275 19-779) (ligand)” gave a pEC50 of 8.24.
